Measurements reported in patent publication US20200325208A1 (IMMUNOWAKE, published 2020).
Read-outs that look alike come from different tables or passages of the source. Values belong to the binder of their own block, whether it stands above or below them.

B2: Human VEGF121/VEGF-A protein (human VEGF 121 isoform) with 6-His tag (ligand)
chain: APMAEGGGQNHHEVVKFMDVYQRSYCHPIETLVDIFQEYPDEIEYIFKPSCVPLMRCGGCCNDEGLECVPTEESNITMQIMRIKPHQGQHIGEMSFLQHNKCECRPKKDRARQEKCDKPRR
notes: range 27-147; Bought from Sino Biological; captured on the ELISA plate through an anti-His-tag antibody; not shown: 6-His tag

Legend:
[1] = biological target: B2; experiment: ELISA, antigen captured by anti-His antibody on plate, HRP anti-IgG Fc detection
Protocol: (§1) 96-well ELISA plates were coated with 100 μl His-tag antibody (capture antibody, 0.4 μg/ml) at room temperature (RT) overnight. The coated plates were washed with washing buffer (pH 7.4 PBS with 0.1% Tween 20) three times, and blocked with 3% BSA in washing buffer for 2 hours, at RT. […] After washing three times, VEGFR-antibody light chain fusion proteins of various concentrations in washing buffer containing 3% BSA were added to the coated plates, and let incubation for 2 hours at RT. Aflibercept (VEGFR-Fc fusion protein) and the corresponding parental full-length antibody were included as positive controls. […] After washing three times, HRP conjugated anti-gG Fc antibody (secondary antibody) was added (1:6000 dilution with 3% BSA in washing buffer), and incubated for 2 hours at RT. After washing four times, 100 μl HRP substrate was added to each well. After developing for 20 minutes, stop buffer was added to each well. Optical density (OD) of each well was measured immediately using a microplate reader at 450 nm. EC₅, was calculated if OD>2.0; otherwise, EC₅₀ was not calculated.

Human IL-17A protein = biological target: T1, Human IL-17A protein (human, UniProt Q16552 24-155); experiment: as above
T1 construct: Purchased
Protocol: as §1

EGFR/LC-GS6-VEGFR-IgG1 = biological target: T2, EGFR/LC-GS6-VEGFR-IgG1; experiment: ELISA
T2 construct: Cetuximab IgG1 with Flt1d2-Flk1d3 fused to the C-terminus of the light chains through the GS6 linker; Expressed in CHO cells

[2] = biological target: T3, tPD-L1/LC-GS6-VEGFR-nIgG1 (Homo sapiens (Human), UniProt P0DOX5 2-449 = IgG part); experiment: ELISA
T3 construct: Atezolizumab (de-glycosylated IgG1) with Flt1d2-Flk1d3 fused to the C-terminus of the light chains through the GS6 linker; Expressed in CHO cells

TNFα/LC-GS6-VEGFR-IgG1 = TNFα/LC-GS6-VEGFR-IgG1 (Homo sapiens (Human), UniProt P0DOX5 2-449 = IgG part); experiment: ELISA
[3] = biological target: B2; experiment: ELISA, antigen captured by anti-His antibody on plate, HRP anti-IgG Fc detection; remark: listed apart in the source
Protocol: as §1

Human PD-1 protein = biological target: T4, Human PD-1 protein (human, UniProt Q15116 25-167, limits assumed); experiment: as above
T4 construct: Purchased
T4 sequence (Q15116 25-167 limits assumed): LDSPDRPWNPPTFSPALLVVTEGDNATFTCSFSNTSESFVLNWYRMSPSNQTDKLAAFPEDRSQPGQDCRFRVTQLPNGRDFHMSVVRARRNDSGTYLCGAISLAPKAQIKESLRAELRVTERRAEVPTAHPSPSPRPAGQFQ
Protocol: as §1

T1 sequence (Q16552 24-155 limits assumed): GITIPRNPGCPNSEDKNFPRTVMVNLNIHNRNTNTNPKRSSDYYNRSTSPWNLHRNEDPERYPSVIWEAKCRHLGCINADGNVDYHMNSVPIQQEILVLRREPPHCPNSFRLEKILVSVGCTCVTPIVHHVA

B1: Pembrolizumab (e.g., Keytruda®) (antibody, human IgG4 S228P, kappa, V domains shown)
VH: QVQLVQSGVEVKKPGASVKVSCKASGYTFTNYYMYWVRQAPGQGLEWMGGINPSNGGTNFNEKFKNRVTLTTDSSTTTAYMELKSLQFDDTAVYYCARRDYRFDMGFDYWGQGTTVTVSS
VL: EIVLTQSPATLSLSPGERATLSCRASKGVSTSGYSYLHWYQQKPGQAPRLLIYLASYLESGVPARFSGSGSGTDFTLTISSLEPEDFAVYYCQHSRDLPLTFGGGTKVEIKR
notes: Parental full-length IgG4 antibody, used as the positive anti-PD-1 control; also called anti-PD-1 antibody
binding result [1]: no binding | binding result (Human IL-17A protein): no binding

Binder: B2
binding result (EGFR/LC-GS6-VEGFR-IgG1): binds | binding result [2]: binds | binding result (TNFα/LC-GS6-VEGFR-IgG1): binds

B3: aPD-L1/LC-GS6-VEGFR-mIgG1 (other)
heavy: EVQLVESGGGLVQPGGSLRLSCAASGFTFSRYWMSWVRQAPGKGLEWVANIKQDGSEKYYVDSVKGRFTISRDNAKNSLYLQMNSLRAEDTAVYYCAREGGWFGELAFDYWGQGTLVTVSSASTKGPSVFPLAPSSKSTSGGTAALGCLVKDYFPEPVTVSWNSGALTSGVHTFPAVLQSSGLYSLSSVVTVPSSSLGTQTYICNVNHKPSNTKVDKRVEPKSCDKTHTCPPCPAPEFEGGPSVFLFPPKPKDTLMISRTPEVTCVVVDVSHEDPEVKFNWYVDGVEVHNAKTKPREEQYNSTYRVVSVLTVLHQDWLNGKEYKCKVSNKALPASIEKTISKAKGQPREPQVYTLPPSRDELTKNQVSLTCLVKGFYPSDIAVEWESNGQPENNYKTTPPVLDSDGSFFLYSKLTVDKSRWQQGNVFSCSVMHEALHNHYTQKSLSLSPGK
light: EIVLTQSPGTLSLSPGERATLSCRASQRVSSSYLAWYQQKPGQAPRLLIYDASSRATGIPDRFSGSGSGTDFTLTISRLEPEDFAVYYCQQYGSLPWTFGQGTKVEIKRTVAAPSVFIFPPSDEQLKSGTASVVCLLNNFYPREAKVQWKVDNALQSGNSQESVTEQDSKDSTYSLSSTLTLSKADYEKHKVYACEVTHQGLSSPVTKSFNRGECTGGGGSGGGGSGGGGSGGGGSGGGGSGGGGSTGSDTGRPFVEMYSEIPEIIHMTEGRELVIPCRVTSPNITVTLKKFPLDTLIPDGKRIIWDSRKGFIISNATYKEIGLLTCEATVNGHLYKTNYLTHRQTNTIIDVVLSPSHGIELSVGEKLVLNCTARTELNVGIDFNWEYPSSKHQHKKLVLSPVNRDLKTQSGSEMKKFLSTLTIDGVTRSDQGLYTCAASSGLMTKKNSTFVRVHEK
notes: Durvalumab (Fc-mutated IgG1) with Flt1d2-Flk1d3 fused to the C-terminus of the light chains through the GS6 linker; Expressed in CHO cells
EC50 [3]: 34.5 nM

Results, then the binder that gave them:

binding result (Human PD-1 protein): no binding | binding result [1]: no binding | EC50 (Human IL-17A protein): 1.1 nM
B4: Ixekizumab (e.g., Taltz®) (antibody, human IgG4 S228P, kappa, V domains shown)
VH: QVQLVQSGAEVKKPGSSVKVSCKASGYSFTDYHIHWVRQAPGQGLEWMGVINPMYGTTDYNQRFKGRVTITADESTSTAYMELSSLRSEDTAVYYCARYDYFTGTGVYWGQGTLVTVSS
VL: DIVMTQTPLSLSVTPGQPASISCRSSRSLVHSRGNTYLHWYLQKPGQSPQLLIYKVSNRFIGVPDRFSGSGSGTDFTLKISRVEAEDVGVYYCSQSTHLPFTFGQGTKLEIKR
notes: Parental full-length IgG4 antibody; also called anti-IL-17A antibody

binding result [3]: no binding
B5: Durvalumab (e.g., IMFINZI™) (antibody, human IgG1, kappa, V domains shown)
VH: EVQLVESGGGLVQPGGSLRLSCAASGFTFSRYWMSWVRQAPGKGLEWVANIKQDGSEKYYVDSVKGRFTISRDNAKNSLYLQMNSLRAEDTAVYYCAREGGWFGELAFDYWGQGTLVTVSS
VL: EIVLTQSPGTLSLSPGERATLSCRASQRVSSSYLAWYQQKPGQAPRLLIYDASSRATGIPDRFSGSGSGTDFTLTISRLEPEDFAVYYCQQYGSLPWTFGQGTKVEIKR
notes: Parental full-length IgG1 kappa; also called MEDI4736; anti-PD-L1 antibody

binding result [1]: no binding | binding result (Human IL-17A protein): no binding
B6: Nivolumab (e.g., Opdivo®) (antibody, human IgG4 S228P, kappa, V domains shown)
VH: QVQLVESGGGVVQPGRSLRLDCKASGITFSNSGMHWVRQAPGKGLEWVAVIWYDGSKRYYADSVKGRFTISRDNSKNTLFLQMNSLRAEDTAVYYCATNDDYWGQGTLVTVSS
VL: EIVLTQSPATLSLSPGERATLSCRASQSVSSYLAWYQQKPGQAPRLLIYDASNRATGIPARFSGSGSGTDFTLTISSLEPEDFAVYYCQQSSNWPRTFGQGTKVEIKR
notes: Parental full-length IgG4 antibody; also called anti-PD-1 antibody
